{"source": "patent US20160297863A1", "about": "(WAKE FOREST UNIVERSITY HEALTH SCIENCES, published 2016)", "binders": {"B1": {"name": "eA5-PE-C (eA5-Fc chemically conjugated to PE38QQR, glycosylated form) (other)", "chain": "QDPGSKAVADRYAVYWNSSNPRFQRGDYHIDVCINDYLDVFCPHYEDSVPEDKTERYVLYMVNFDGYSACDHTSKGFKRWECNRPHSPNGPLKFSEKFQLFTPFSLGFEFRPGREYFYISSAIPDNGRRSCLKLKVFVRPTNSCMKTIGVHDRVFDVNDKVENSLEPADDT"}}, "target": "EphA2 receptor on GBM cells (human, UniProt P29317 24-976)", "sequence (P29317 24-976)": "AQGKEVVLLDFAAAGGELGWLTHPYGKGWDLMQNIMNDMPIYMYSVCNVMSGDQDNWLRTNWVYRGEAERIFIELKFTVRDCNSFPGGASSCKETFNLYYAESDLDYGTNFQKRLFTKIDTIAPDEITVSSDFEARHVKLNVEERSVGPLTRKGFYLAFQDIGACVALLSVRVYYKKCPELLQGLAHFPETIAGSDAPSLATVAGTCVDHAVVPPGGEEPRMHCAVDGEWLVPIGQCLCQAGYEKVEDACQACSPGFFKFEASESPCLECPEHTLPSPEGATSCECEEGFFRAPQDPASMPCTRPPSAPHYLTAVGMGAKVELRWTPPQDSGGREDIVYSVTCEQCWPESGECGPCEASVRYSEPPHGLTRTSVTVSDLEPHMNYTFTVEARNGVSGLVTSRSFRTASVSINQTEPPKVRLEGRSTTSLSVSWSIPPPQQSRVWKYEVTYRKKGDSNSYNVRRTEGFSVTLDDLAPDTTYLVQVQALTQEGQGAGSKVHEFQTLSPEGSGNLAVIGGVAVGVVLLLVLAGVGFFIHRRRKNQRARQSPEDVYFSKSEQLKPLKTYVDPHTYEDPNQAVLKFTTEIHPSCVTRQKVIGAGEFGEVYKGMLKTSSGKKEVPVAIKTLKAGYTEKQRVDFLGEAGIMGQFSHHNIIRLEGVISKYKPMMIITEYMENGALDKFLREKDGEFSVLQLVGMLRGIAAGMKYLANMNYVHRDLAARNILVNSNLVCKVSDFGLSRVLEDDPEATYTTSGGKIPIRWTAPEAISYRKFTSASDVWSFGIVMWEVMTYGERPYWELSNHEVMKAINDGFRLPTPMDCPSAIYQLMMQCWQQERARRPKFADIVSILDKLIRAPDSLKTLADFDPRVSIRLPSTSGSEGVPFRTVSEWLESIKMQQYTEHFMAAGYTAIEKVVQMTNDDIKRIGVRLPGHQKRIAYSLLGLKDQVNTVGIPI", "assay": "cell-based or functional assay"}
{"binder": "B1", "values": [{"measurement": "IC50, GBM tumor cell killing (cell viability assay)", "result": "~10", "unit": "pM"}]}
